The target of test [1] is Apolipoprotein B mRNA-editing enzyme-catalytic polypeptide-like 3G (A3G), wild type, cmyc-tagged (human) (UniProt Q9HC16). In words: cell-based or functional assay.
The target of test [2] is mutant A3G D128K, cmyc-tagged (human) (UniProt Q9HC16). The experiment in a line: cell-based or functional assay.

For the substance HIV-1 viral infectivity factor (Vif), the infectivity of HIV-GFP produced from D3GFP-carrying 293T cells in the presence of HIV-1 Vif, percent of control in test [1] is 89 % of control. In test [2], the infectivity of HIV-GFP produced from D3GFPD128K-carrying 293T cells in the presence of HIV-1 Vif, percent of control is 1 % of control and the inhibition of HIV-GFP replication (GFP+ 293T cells by flow cytometry) by pD3GFPD128K in the presence of HIV-1 Vif was 90%.
On to “macaque simian immunodeficiency virus Vif (SIVmac Vif)”, for which the percent green fluorescent 293T cells after infection with D3GFP vector produced in the presence of SIVmac Vif in test [1] was found to be 24%. Moreover, the percent green fluorescent 293T cells after infection with D3GFPD128K vector produced in the presence of SIVmac Vif in test [2] came out at 26%.

(Values after patent publication US20080226675A1.)
